Experimental findings from a protein production outcome set (Wang et al. 2014) are described below.

A short description of the data set: label from the status in PepcDB records.
Regarding “EEELPFKVLGDGSYLFEGKTSLSDVRHYLDLPENAFGELGDEVDTLSGLFLEIKQELPHVGDTAVYEPFRFQVTQMDKRRIIEIKIFPFE”, the protein production result is reported as “not failed”. For “EEGNSSELPLSAEDAKKLTELAENVLQGWDVQAEKIDVIQGNQMALVWKVHTDSGAVCLKRIHRPEKKALFSIFAQDYLAKKGMNVPGILPNKKGSLYSKHGSFLFVVYDWIEGRPFELTVKQDLEFIMKGLADFHTASVGYQPPNGVPIFTKLGRWPNHYTKRCKQMETWKLMAEAEKEDPFSQLYLQEIDGFIEDGLRIKDRLLQSTYVPWTEQLKKSPNLCHQDYGTGNTLLGENEQIWVIDLDTVSFDLPIRDLRKMIIPLLDTTGVWDDETFNVMLNAYESRAPLTEEQKQVMFIDMLFPYELYDVIREKYVRKSALPKEELESAFEYERIKANALRQLI” the value was “not failed”; for “EEHPRAWIISVGNELLIGRTINTNAAWLGSRLTLLGFEVERVVTVPDRVEDIAEEVGRALGRARVVITTGGLGPTYDDVTLQGVAMALGRGLKLHPGALEMVRRFYSKRGLGLTEDRVKMAMLPDGAEPLENPVGAAPGAVVEARGSLVASLPGVPSEMEAMFEKALRPLLEEIAPPGAVVECGIAVVGVPESSLAPYIKEASRVSPRVYVKSHPQGSEIGKPLVR”, “failed”; for “EEPTIGDIYNGKVTSIMQFGCFVQLEGLRKRWEGLVHISELRREGRVANVADVVSKGQRVKVKVLSFTGTKTSLSMKDVDQETGEDLNPNRRRNLV”, “not failed”. Take “EERRVAYPVLRELTERTGETSALMVWNGNESMCVEQIPSRHQVKHLAPLGARYNEALSSSVQVFLASENEDRVRQLLRSGSITLTGVDEDAVEAYLLRLKESMERGWAVNFGETSIEEVGVASPVYDHRGNMVASVLIPAPKFRVSQDTLNSLGEACAAAAAKVTTRLGGRAPH”: the protein production entry is “not failed”. With “EETRTEVEKKNYMNNAEEAKDVLLGVYRTNTLDAMYGYYLSILFNLGTDISQVEGSGNENFRIIPTNSFPTTQSEVQQTWAALYTGIYRANDFLERISNKIGSYTTTDKKLATLYIAEARALRGMFYFELVRRFGNVVLMTSTQMSNQNPATYVQSAPEKVYEYIEDDLLYACDILPYATDDQYRESNDYRFSKGAALGLLTKVYATWAGYPVKDESKWEAAAKTARILVESGKHGLLKDYEQLWKNTCNGTWDPTESLIEISFYSPTVSGNSDPVGRIGKWNGVKTTAIAGVRGSCAANVKVVHTFVLDWREDVSDIRRDLSIANYQYTDTKKSLWVAGASDTDESAAEKDADPTKAQKNKQNYTPAKWDIQKYVTTNSFINNDKSNVNWYFLRYADVLLLYAEALNEWKHGPDAEAYNAINAVRRRGYGNPSNTSACDLPQGLDETSFREAVRKERSYELSFEGHRRQDLIRWGIYYKTVQATAKELGYWWEGTGSPNYSVATYTEEGKHELFPIPQRDMDLCIQFNQNPKW”, the protein production entry is reported as “not failed”. For the sequence “EGDPENGEKLQITIRRGKDGFGFTICCDSPVRVQAVDSGGPAERAGLQQLDTVLQLNERPVEHWKCVELAHEIRSCPSEIILLVWRV”, the protein production entry is recorded as “not failed”. For “EGRLVCTVRDMTDRRQKERALRHRSSAMEVASDGIAILDEAGTYQYVNQAHASIYGYDTPGALVGRSWTACYEEAEQQRLEAEAMAALEETGDWRGEARGVREDGSSFPQELTLTVLEDGSIVCVVRDITARKEDERELRSTKQYYEQILEKAVK”, the protein production entry is recorded as “failed”.

Take “EIKLEDVLIKRRSVREYCSSPLTLRELSHILFAAYGVTDERGFKTVPSAGATYPLEIYVNVRDVVGVEEGVYKYIPERHSIVRILDEEVGHELALAALKQMFIAIAPIVLIIAANYERTTRVYGDRGFRYVHMEVGHVAQNVYLMATSLGLGTVSVGAFYDNEIREILKIKEYPLLLMPVG”: the protein production entry is on record as “failed”. Under “EKGTTGTGNAALDNIFERKSVRTYLNKGVEKEKIDLMLRAGMSAPSGKDVRPWEFVVVSDRAKLDSMAAALPYAKMLTQARNAIIVCGDSARSFYWYLDCSAAAQNILLAAESMGLGAVWTAAYPYEDRMEVVRKYTHLPENILPLCVIPFGYPATKEQPKQKYDEKKIHYNQY” stands “not failed”; under “EKIWPRDRSASRERSLSPRSDRRSVASSQPAKPTKVTLVKSRKNEEYGLRLASHIFVKEISQDSLAARDGNIQEGDVVLKINGTVTENMSLTDAKTLIERSKGKLKMVVQRDERATLLNVPDLSDSIHSANASERDDISEIQSLASDH”, “failed”; under “ELHPRTGRLVSLSACGRTARRQQPGQEFNHGLVLSREPLRDGRVFTVRIDRKVNSWSGSIEIGVTALDPSVLDFPSSATGLKGGSWVVSGCSVLRDGRSVLEEYGQDLDQLGEGDRVGVERTVAGELRLWVNGRDCGVAATGLPPRVWAVVDLYGKCTQITVL”, “not failed”. As for “ELTIPKGAVSEIVTLSETFNQMAALLAEREQAILDSRGNRFARLIDGMSDKSFYCSLDPDGQLAQVSEGVTKVLGIPPELLKRKYQRLFSANPLNEKNWEYTDLALKGQNVPPHQIELVDAKGQARRLDVFMQPLVSDT”, the protein production entry is “failed”. Under “EMFYFEPVNIKKYLGSIGSELSDEVITIEQFFNLNSEYITIIDARSPREFSEKTISNAVNIPLFLTEEYETIGKLYKHEGKEVAIAKAGIIIQDGIKRIVSESLKLDPNKNLVVFCARGGMRSQSIATILKLLGFKVKRLVGGFKSYNISKT” stands “failed”; under “EMTDLQSTHKNFLFEIEEVGIKNLTYPVLIDQYQTAGLFSFSTSLNKNEKGINMSRILESVEKHYDNGIELEFNTLHQLLRTLQDKMNQNAAGVDVSGKWFFDRYSPVTNIKAVGHADVTYGLAIENHTVTRKELTIQAKVTTLCPCSKEISEYSAHNQRGIVTVKAYLDKNNDVIDDYKDKILDAMEANASSILYPILKRPDEKRVTERAYENPRFVEDLIRLIAADLVEFDWIEGFDIECRNEESIHQHDAFARLKYRK”, “not failed”.

For “EPTFVVAQIKEIIDHPDSDHLHICQAEINDGKTVQIVCGAPNASVGLKTVAALPGAMMPNGSLIFPGKLRGEDSFGMLCSARELALPNAPQVRGIIELSDQVIVGESFDANK”, the protein production entry is recorded as “failed”. Under “EPVQLTVPQMLAQLQGTDTSLRYYAAWWLGKFGLETATAAERQAIVSALIAALADEADRTELGGYPLRRNAARALGKLGDRQAVPALIECLRCEDFYVREAAAIALGQLGDPRAIAPLQSLLEGGVAMARLVPGRPHLVQPVEAVIESLGHLGATEAIALIEPFLAHEMPRVQFAAARALFQLTGDAVYGDRLLAALNSEDVQLRRTALLDLGAMGYLPAAEAILQAGVEASFKLIALHGILGQQLRQAAPAEQTLSLFQGLDQLL” stands “failed”; under “EQDIVANGGEVLGSETVGDVSLFFLNPVGHIHHWVTDAWGGSAELKFNSSPWFGNQDVAKFAMDAGASYDSQFYGVELKVTF”, “failed”; under “EQQGKFDWMLRDLYDGVPGIEMIVVLSADGLRIARYSGDPDAADRVAAACAGLQSLASAVSQEIPTSDGDMKMVLIEMNGGYFYLMAAGPNAYLAVLSDVRCEPGRMGLSMADLVARIGPHLTSPARR”, “failed”. Under “EQYGDLPPRVFECRLAMVQPSSVVSGNNRWSTAANDMLKTVAQCGLIDIEVYSLFNNVAAVLIHMRDGIINDKLVELMLCRRSDEDYMSRKDHDFRLRRQ” stands “failed”; under “ERIRYESQIKRFNRIMDTTMENIPAGIVVKDIENDFRYIYRNRESYNRDISSENAIGMNDFDYYPPEMAQQKRKEDMEIAATGKGMHWIMEGKDKNGNLLILDKQKIMVESEDFSPIIVSIEWDIT”, “failed”; under “ERKRREKRLEETSSRLEALFENSPDMIDVLDADGTICEVNQRFCAELGYDESEVLGRSIWEFDLMFDAEDVQTQLSGFSVDERRKFEGLYERRDGSTMSVEVHLLRFNLEGEDRFLAISRDIT”, “not failed”. For “ERNKTLYWGGALWSPPSNWNPFTPWNAVAGTIGLVYEPLFLYDPLNDKFEPWLAEKGEWVSNNEYVLTLRKGLRWQDGVPLTADDVVFTFEIAKKYTGISYSPVWNWLGRIERVDERTLKFVFSDPRYQEWKQMLINTPIVPKHIWENKTEEEVLQAANENPVGSGPYYVESWADDRCVFKKNGNWWGIRELGYDPKPERIVELRVLSNNVAVGMLMKGELDWSNFFLPGVPVLKKAYGIVTWYENAPYMLPANTAGIYINVNKYPLSIPEFRRAMAYAINPEKIVTRAYENMVTAANPAGILPLPGYMKYYPKEVVDKYGFKYDPEMAKKILDELGFKDVNKDGFREDPNGKPFKLTIECPYGWTDWMVSIQSIAEDLVKVGINVEPKYPDYSKYADDLYGGKFDLILNNFTTGVSATIWSYFNGVFYPDAVESEYSYSGNFGKYANPEVETLLDELNRSNDDAKIKEVVAKLSEILLKDLPFIPLWYNGAWFQASEAVWTNWPTEKNPYAVPIGWNGWWQLTGIKTLFGIEAK” the value was “not failed”.

“ESEPYVRLTTLRQLHQVMADMNTARSLADTLQTVADGVVNGLGYELACVNLVRPDGDLVVAAFAGNSAAEALITGRVGSRVSWDRRLDMGEAWGDLRFIPHTEGWVLDEDDVPQWYTDGPEPRFEDEWHPSDRLFAPMYTPGVQGASCGELIGVLSVDRPRNGRKPGAWGREALQMYAFQAAIAISNARLRANMQRALVRLEREQQALRASEESFRQAFEYAPS”: the protein production result is recorded as “failed”. Under “ETSDQRKAEEHIEKEAKYLASLLDAGNLNNQANEKIIKDAGGALDVSASVIDTDGKVLYGSNGRSADSQKVQALVSGHEGILSTTDNKLYYGLSLRSEGEKTGYVLLSASEKSDGLKGE” stands “not failed”. Take “FANTATVAVSQIVEHPALDATRQGLLDGLKAKGYEEGKNLEFDYKTAQGNPAIAVQIARQYVGESPDVLVGIATPSAQALVSATRTIPVVFTAVTDPVGAKLVKSMKQPGKNVTGLSDLSPVAQHVELIQEILPQVKSIGVVFNPGEANAVTLVNLLKESAEAKGIKVVEATALKSADVQSATQAIAAKSDILYAPTDNTVASAIEGMIVAANQAKKPVFGGATSYVEKGAIAGLGFDYYQVGVQTADYVAAILDGQEPGKLDVKVATGSDLVINESAASKLGIQLPSSVVQRATSMQ”: the protein production entry is reported as “failed”.

In the case of “FDENWGADEELLLIDACETLGLGNWADIADYVGNARTKEECRDHYLKTYIE”, the protein production result is given as “not failed”. Under “FEKVYHLKLSIKGITPQIWRRIQVPENYTFLDLHKAIQAVMDWEDYHLHEFEMVNPKTGMLDKIGAEGDDFDAFGGPLVSEKKAKLSDYFTLENKEALYTYDFGDNWQVKVRLEKILPRKEGVEYPICTAGKRAAVPEDSGGVWGYEEMLEVLKDSEHEEYEDTVLWLGDDFDPEYFDPKDVS” stands “failed”; under “FGKVTSSQQVAQRLLQEMKGLQQEHLICIYLNTKNDIIQQKTIFKGSLNQSIAHPREIFREAVKYSSARILLAHNHPSGNPTPSPQDIQFTKRMEECGEMMGIQLLDHIILGDSGYISLREENFFASE”, “failed”. For “FIFFNQPKTPEESIQLLGAQAGDTESFRVTLDRIPPQIQKLSFTATLDGAGQMSQVAPGYLRIVAGGEEVARYSFTGSEFSTERAVMLGDFYLKDVWRFAAVGQGFDGGLDALL” the value was “failed”; for “FNGWSWSLGGNIGFNKSKIGDLGFAPTDFGTLKNVRGYQGTSIGDHFGIANLFIAGEAPGLFFGYKTQGIIQPEDIVDGKVAYTAADGSTKYYSSSVANDLGAGNIKAVDMNEDGVVDEKDKTILGNPNPDFTYGFQTRIAWKDLSVSASFNGVHGNQILNTNIRYYTPSRQAGNLTQEAFRNIWTEENHSNLYPSATANVKNVVYDRYIEDGSYLRCSDITLNYTLPKSWMKKIGFQNIGVFASVKNAFVITNYSGYDPEINSFAFDGLRPGIDMNAFPSQRSYVFGLNVAF”, “failed”.
